Experimental data from article doi:10.1101/2020.09.29.319483.

What was measured:
[1] = biological target: human glucagon-like peptide-1 receptor (human) (UniProt P43220); assay: radioligand binding
[2] = biological target: human glucagon-like peptide-1 receptor (human) (UniProt P43220)

UniProt P43220, sequence (P43220 24-463): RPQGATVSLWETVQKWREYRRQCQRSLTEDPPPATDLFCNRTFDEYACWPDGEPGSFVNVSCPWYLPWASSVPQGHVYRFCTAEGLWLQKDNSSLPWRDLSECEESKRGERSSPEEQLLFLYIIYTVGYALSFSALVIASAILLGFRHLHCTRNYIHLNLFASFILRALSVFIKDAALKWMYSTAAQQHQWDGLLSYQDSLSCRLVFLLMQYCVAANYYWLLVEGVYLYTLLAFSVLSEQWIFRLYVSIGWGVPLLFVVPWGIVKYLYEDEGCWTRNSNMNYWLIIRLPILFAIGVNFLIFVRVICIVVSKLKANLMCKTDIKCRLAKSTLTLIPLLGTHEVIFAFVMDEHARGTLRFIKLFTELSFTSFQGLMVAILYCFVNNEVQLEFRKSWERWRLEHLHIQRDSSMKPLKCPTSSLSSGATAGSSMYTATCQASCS

Substance	Ki [1]	cAMP production, candidate selection (CS) CHO-GLP-1R cell line [2]
liraglutide (peptide)	4.4 nM	–
exenatide (from UniProt P26349 48-87) (peptide)	0.092 nM	0.11 nM
